The values that follow come from US20110171205A1.

The test has as its target hSlo, human pore-forming α-subunit of the high conductance calcium-activated potassium channel (maxi-K) (human) (UniProt Q12791). Briefly: cell-based or functional assay.
Chain of UniProt Q12791 (Q12791 whole entry): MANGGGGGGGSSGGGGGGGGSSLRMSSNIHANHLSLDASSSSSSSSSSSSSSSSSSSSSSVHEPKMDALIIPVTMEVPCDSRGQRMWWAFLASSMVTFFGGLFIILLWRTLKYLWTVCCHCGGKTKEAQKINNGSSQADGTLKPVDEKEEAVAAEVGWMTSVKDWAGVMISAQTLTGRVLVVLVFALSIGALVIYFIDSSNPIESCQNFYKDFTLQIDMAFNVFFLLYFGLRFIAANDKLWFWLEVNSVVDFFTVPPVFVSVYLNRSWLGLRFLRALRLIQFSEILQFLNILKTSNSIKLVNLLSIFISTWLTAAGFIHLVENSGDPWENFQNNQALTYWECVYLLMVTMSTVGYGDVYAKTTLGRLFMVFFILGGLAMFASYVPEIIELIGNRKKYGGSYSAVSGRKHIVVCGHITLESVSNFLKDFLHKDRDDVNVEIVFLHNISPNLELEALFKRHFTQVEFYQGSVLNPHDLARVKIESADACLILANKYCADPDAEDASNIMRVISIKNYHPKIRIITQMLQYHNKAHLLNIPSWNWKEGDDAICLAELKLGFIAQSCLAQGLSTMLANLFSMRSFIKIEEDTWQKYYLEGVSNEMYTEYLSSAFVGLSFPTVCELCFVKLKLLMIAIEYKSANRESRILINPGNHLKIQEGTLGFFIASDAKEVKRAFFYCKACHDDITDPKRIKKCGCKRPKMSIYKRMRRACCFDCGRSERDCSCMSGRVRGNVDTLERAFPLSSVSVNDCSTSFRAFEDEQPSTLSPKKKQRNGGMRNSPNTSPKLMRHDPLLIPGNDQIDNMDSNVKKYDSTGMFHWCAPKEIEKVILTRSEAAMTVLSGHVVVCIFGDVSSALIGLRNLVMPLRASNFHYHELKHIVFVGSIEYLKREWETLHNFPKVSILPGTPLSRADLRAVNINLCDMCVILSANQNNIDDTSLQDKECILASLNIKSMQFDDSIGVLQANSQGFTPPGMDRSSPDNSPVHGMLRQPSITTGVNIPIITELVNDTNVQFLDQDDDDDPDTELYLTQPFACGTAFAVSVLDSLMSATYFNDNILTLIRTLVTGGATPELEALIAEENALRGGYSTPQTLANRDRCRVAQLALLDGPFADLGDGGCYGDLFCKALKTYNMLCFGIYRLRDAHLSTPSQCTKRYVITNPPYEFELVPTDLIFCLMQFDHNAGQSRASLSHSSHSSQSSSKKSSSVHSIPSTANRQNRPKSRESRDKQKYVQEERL

“iberiotoxin (from UniProt P24663 1-37) (peptide)”: the block of hSlo current (whole cell patch) at 300 nM toxin is greater than 90%.
In the case of “charybdotoxin (from UniProt P13487 23-59) (peptide)” it was greater than 90%.
